Results: the supplement of paper PMC10567573

B1: MATN2 (parent)
chain: FIVDILQFLDIGPDVTRVGLLQYG
B2: KRT33B (parent)
chain: PAVDLNQVLNETRNQYEALVETNR

Variants of: B1
Experiment: protein stability index of a GFP-peptide fusion (GPS, HEK-293T) (PSI 1-6); higher = more stable
Details: c terminus: a fixed tail appended
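Further: lentivirally expressed fusions sorted by FACS into six bins by GFP to DsRed ratio, PSI derived from sequencing read proportions per bin multiplied by bin number.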

Protein stability index, by site and new letter:
L20: G 3.72 | W 3.97 | C 1.87 | V 4 | Y 3.45 | A 2.25 | F 2.92 | R 1.79 | H 2.86 | N 3.71
D10: W 2.66 | T 3.42 | E 3.48 | L 2.62 | R 3.54
I2: L 1.44 | G 3.67 | H 3.01 | Y 3.07 | T 1.4 | K 2.88 | R 2.35
Q22: Y 4.14 | M 2.53 | N 1.93 | G 3.55 | F 3.25 | S 3.08 | A 2.48 | V 3.57 | K 2.98
R17: I 2.77 | N 2.75 | A 3.59 | F 2.23 | L 3.37 | C 2.86 | G 2.07 | V 3.47 | M 2.05 | Y 3.22 | S 1.03
D4: L 2.53 | C 2.67 | A 2.58 | E 2.88 | Y 2.58 | V 2.77 | Q 2.72 | H 4.41 | K 2.12 | P 5.01
F8: Q 2.49 | S 2.12 | L 2.43 | I 2.65 | P 2.96 | K 1.06 | T 3.44 | G 4.33 | D 2 | N 1.68 | C 2.21 | V 2.94
G19: W 2.62 | I 2.67 | C 1.32 | P 2.58 | V 2.69 | A 2.26 | S 2.33 | L 3.83 | D 3.21 | Q 2.7 | T 3.15 | M 3.24 | H 3.51 | E 3.93
L6: H 3.78 | Y 2.87 | A 3.92 | F 2.17 | P 1.3 | W 3.3 | R 3.41 | I 2.56
V18: S 3.5 | R 1.82 | K 2.05 | M 2.55 | Q 1.8 | D 2.04 | P 3.38 | N 2.16 | C 2.58 | F 3.25
D14: A 2.27 | Y 2.6 | I 3.22 | H 2.17 | S 2.67 | N 3.04 | P 3.06 | E 4.71
V15: L 1.88 | M 4.35 | N 2.49 | A 2.88 | Y 3.39 | I 2.16 | F 3.1 | P 3.2 | W 2.06 | D 4.47
I11: T 2.8 | N 2.49 | C 1.18 | Q 2.77 | K 3.5 | M 3.73 | H 4.42 | Y 3.28 | G 3.02 | L 2.53 | S 2.12
G12: C 2.76 | N 3.36 | S 2.61 | M 2.11 | R 4.05 | Q 2 | H 3.69 | L 2.63 | I 2.79 | D 2.56 | T 3.93 | F 1.9
F1: Q 2.03 | A 2.61 | Y 2.36 | V 1.05 | P 1.15 | E 2.04 | W 2.01 | K 2.46 | N 2.54
Y23: M 2.75 | L 1.84 | Q 2.29
L21: E 3.73 | F 2.62 | H 2.01 | T 2.95 | C 3.73 | A 2.8 | K 2.13 | P 4.3 | I 2.79 | W 3.27 | G 3.3 | S 2.57
P13: A 3.91 | H 2.73 | S 2.69 | F 1.91 | N 3.21 | E 2.72 | M 2.4 | I 2.79 | V 2.93 | Q 4 | K 2.15 | W 2.61
I5: D 3.18 | L 2.26 | Q 1.81 | N 2.12 | V 3.23 | F 3.88 | A 1.44 | E 3.96 | Y 3.16
V3: N 3.33 | W 3.32 | D 3.75 | K 2.6 | Y 2.5 | H 4.66 | P 2.84
T16: D 2.7 | P 2.42 | M 1.06 | L 3.03 | Y 4.05 | R 2.33 | W 3.52 | G 2.19
Q7: D 3.01 | A 3.4 | H 1.98 | P 2.12 | E 3.38 | Y 3.34 | S 2.27 | T 3.12 | C 2.24 | K 3.78
L9: P 4.2 | T 2.81 | A 1.79 | Q 2.47 | E 1.72 | F 3.76 | K 1.84 | D 2.93

Variants of: B2
Experiment: as above
Details: c terminus: a fixed tail appended

Protein stability index, by site and new letter:
V8: K 4.56 | H 4.05 | R 4.93 | G 4.91 | D 4.77
Y16: E 4.85 | T 5.15 | N 5.25
V3: S 3.64 | F 4.36 | P 4.99 | K 3.83 | G 4.65
A18: D 4.43 | E 3.58 | L 3.59 | V 4.06 | N 3.89
P1: N 4.23 | L 3.46 | R 3.7 | T 3.72 | M 3.71 | C 2.89 | K 3.66
N6: S 3.54 | L 1.71 | G 4.3 | P 4.33 | F 2.31
Q7: Y 3.83 | M 4.24 | N 4.33 | E 3.11
D4: Y 3.44 | G 4.02 | R 3.76 | P 3.74 | T 3.08 | V 3.99 | W 2.64
L9: P 4.72 | S 4.96 | W 4.32 | V 4.65
E17: P 4.39 | A 3.65 | C 3.65 | M 3.55
R24: N 4.16 | I 2.59
N14: H 3.53 | I 2.02 | V 3.3 | D 3.59 | C 2.82
T22: C 3.78 | L 2.23 | H 3.98 | A 3.94 | I 3.02 | N 4.5
V20: T 4.95 | S 4.43 | M 2.8
R13: C 4.38 | I 3.32 | H 4.76 | L 3.46
E21: I 3.71 | R 4.04 | C 3.58 | S 4.05 | P 4.18 | D 3.69 | Q 3.95 | F 3.23
A2: Q 3.11 | H 3.93 | N 4.4 | W 1.59 | S 3.23 | M 2.4 | T 3.52 | R 3.57
L5: I 3.47 | P 4.03 | N 5.02 | A 3.8 | V 3.02
E11: R 4.02 | L 3.81 | N 3.94 | Y 3.85 | D 3.77 | F 3.84 | G 3.85 | V 3.88
Q15: A 3.84 | S 3.95 | Y 3.23 | W 2.86 | V 3.82 | L 2.04 | R 4.37
N23: V 3.27 | A 4.3
N10: M 2.23 | K 2.74 | S 3.31 | C 3.59 | L 2.56
L19: V 4.85 | C 4.53 | Y 4.61
T12: M 3.4 | K 4.41 | F 1.85 | G 4.32
